According to PMC3639047:

Target: His6-human talin (human) (UniProt Q9Y490)
Experiment: pull-down

B1: His6-vinculin head (Vh), vinculin D1 domain (amino acid residues 1–258) (domain or fragment)
chain: MPVFHTRTIESILEPVAQQISHLVIMHEEGEVDGKAIPDLTAPVSAVQAAVSNLVRVGKETVQTTEDQILKRDMPPAFIKVENACTKLVRAAQMLQADPYSVPARDYLIDGSRGILSGTSDLLLTFDEAEVRKIIRVCKGILEYLTVAEVVETMEDLVTYTKNLGPGMTKMAKMIDERQQELTHQEHRVMLVNSMNTVKELLPVLISAMKIFVTTKNTKSQGIEEALKNRNFTVEKMSAEINEIIRVLQLTSWDEDAW
  fold lower IC50 than that of the RIAM peptide: 100 fold
